From US20070166787A1 (YEDA RESEARCH AND DEVELOPMENT, published 2007)

B1: death domain (DD) of human p55 TNF-R, residues 326-426, Gal4 hybrid construct (receptor, not shown: large carriers)
chain: DPATLYAVVENVPPLRWKEFVRRLGLSDHEIDRLELQNGRCLREAQYSMLATWRRRTPRREATLELLGRVLRDMDLLGCLEDIEEALCGPAALPPAPSLLR
notes: Yeast two-hybrid fusion; also called p55-R; p55 TNF-R DD
B4: death domain (DD) of human MORT-1, residues 92-208, Gal4 hybrid construct (other, not shown: large carriers)
chain: PGEEDLCAAFNVICDNVGKDWRRLARQLKVSDTKIDSIEDRYPRNLTERVRESLRIWKNTEKENATVAHLVGALRSCQMNLVADLVQEVQQARDLQNRSGAMSPMSWNSDASTSEAS
notes: Yeast two-hybrid fusion; also called MORT-1 DD; HF1
B5: death domain (DD) of human TRADD, residues 195-312, Gal4 hybrid construct (other, not shown: large carriers)
chain: PPPPAQTFLFQGQPVVNRPLSLKDQQTFARSVGLKWRKVGRSLQRGCRALRDPALDSLAYEYEREGLYEQAFQLLRRFVQAEGRRATLQRLVEALEENELTSLAEDLLGLTDPNGGLA
notes: Yeast two-hybrid fusion; also called TRADD DD

Legend:
[1] = target: B5; experiment: yeast two-hybrid (summing up of Example 2)
Source text: (§1) Two-Hybrid β-Galactosidase Expression Tests. cDNA inserts were cloned by PCR, either from the full-length cDNAs cloned previously in our laboratory, or from purchased cDNA libraries. Residue numbering in the proteins encoded by the cDNA inserts are as in the Swiss-Prot Data Bank. Point mutants were produced by oligonucleotide-directed mutagenesis (Kunkel, 1994). β-galactosidase expression in yeasts (SFY526 reporter strain (Bartel et al, 1993)) transformed with these cDNAs in the pGBT-9 and pGAD-GH vectors (DNA binding domain (DBD) and activation domain (AD) constructs, respectively) was assessed by a filter assay (Boldin et al, 1995). When expressed in the pGAD-GH vector, RIP and its DD had some cytotoxic effect on the yeasts, manifested in a low yield of yeast colonies.
(§2) The interactions of the DDs of human p55 TNF-R, FAS-R, TRADD, MORT-1 and RIP were evaluated first by a yeast two-hybrid test. The cDNAs encoding these domains were expressed as fusion proteins with the Gal4 DNA binding and activation domains (DBD and AD constructs) in the yeast SFY526 reporter strain, and the binding of these fusion proteins to each other was assessed by determining β-galactosidase expression by the yeasts. The results of these tests are summarized in FIG. 1 and illustrated diagrammatically in FIG. 3.

[2] = target: T1, intracellular domain of the human p75 TNF receptor (human, UniProt P20333 288-461, limits assumed); experiment: yeast two-hybrid specificity test (not shown)
T1 construct: domain: intracellular domain; Irrelevant control in the two-hybrid specificity test; construct not described; also called p75 IC
T1 sequence (looked up): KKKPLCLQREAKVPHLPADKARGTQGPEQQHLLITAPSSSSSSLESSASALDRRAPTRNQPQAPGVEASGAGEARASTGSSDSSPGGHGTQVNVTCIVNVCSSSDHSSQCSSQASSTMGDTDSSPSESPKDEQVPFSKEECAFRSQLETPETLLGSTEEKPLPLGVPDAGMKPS

SNF 1 = target: T2, SNF 1 (UniProt P06782 1-633, limits assumed); experiment: yeast two-hybrid specificity test (not shown)
T2 sequence (looked up): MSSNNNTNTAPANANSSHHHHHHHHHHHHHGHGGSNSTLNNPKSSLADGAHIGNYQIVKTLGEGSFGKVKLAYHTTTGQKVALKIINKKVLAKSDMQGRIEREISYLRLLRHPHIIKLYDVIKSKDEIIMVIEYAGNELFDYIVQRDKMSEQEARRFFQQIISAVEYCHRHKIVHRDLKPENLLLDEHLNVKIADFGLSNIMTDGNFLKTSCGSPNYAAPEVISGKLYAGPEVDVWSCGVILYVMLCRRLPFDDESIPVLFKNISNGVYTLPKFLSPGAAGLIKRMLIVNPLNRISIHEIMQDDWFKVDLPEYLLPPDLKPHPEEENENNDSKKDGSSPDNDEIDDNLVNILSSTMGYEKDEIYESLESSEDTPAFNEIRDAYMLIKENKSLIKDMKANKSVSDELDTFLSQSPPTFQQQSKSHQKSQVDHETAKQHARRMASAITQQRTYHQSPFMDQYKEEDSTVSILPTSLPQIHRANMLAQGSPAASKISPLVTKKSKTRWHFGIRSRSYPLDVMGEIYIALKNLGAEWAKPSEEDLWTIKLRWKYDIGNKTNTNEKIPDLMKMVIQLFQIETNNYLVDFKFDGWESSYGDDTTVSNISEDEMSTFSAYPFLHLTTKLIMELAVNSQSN

[3] = target: B4; experiment: yeast two-hybrid, beta-galactosidase filter assay, SFY526
Source text: as §1, §2

[4] = target: the molecule itself; experiment: yeast two-hybrid, beta-galactosidase filter assay
Source text: (§3) FIG. 2 depicts interactions of the ‘death domains’ of the P55-R, Fas/APOI, MORT-1, TRADD and. RIP in a yeast two-hybrid test, and the effect of lbr^cg-like mutations in these proteins on their interactions. Assessment of the interaction of Gal4 hybrid constructs encompassing the following human proteins, truncated upstream to their DD motifs: p55-R (residues 326-426), FAS-R (residues 210-319), MORT-1 (residues 92-208), TRADD (residues 195-312) and RIP (residues 261-372), as well as of the following points mutants of these proteins: p55-R L35IN, FAS-R V238N, MORT-1 V121N, and RIP F308N, whose mutation sites within the DDs correspond to that found in the FAS-R of the lpr^cg mice. Each cDNA insert was introduced both into the Gal4 DNA binding domain (DBD) and the Gal4 activation domain (AD) constructs (pGBT9 abd pGAD-GH), and the binding of the inserts in both constructs to all other inserts within transfected SFY526 yeasts was assessed by a β-galactosidase expression filter assay. The results are presented in terms of the time required for development of strong color. ND—not done.
as §1

[5] = target: B5; experiment: yeast two-hybrid, beta-galactosidase filter assay
Source text: as §3, §1

[6] = target: B4; experiment: yeast two-hybrid, beta-galactosidase filter assay
Source text: as §3, §1

[7] = target: B5; experiment: yeast two-hybrid specificity test (not shown)
[8] = target: B4; experiment: yeast two-hybrid specificity test (not shown)
[9] = target: B1; experiment: yeast two-hybrid specificity test (not shown)
[10] = target: the molecule itself; experiment: yeast two-hybrid, self-association, beta-galactosidase filter assay, SFY526
Source text: as §1, §2

[11] = target: B5; experiment: yeast two-hybrid, beta-galactosidase filter assay, SFY526
Source text: as §1, §2

[12] = target: the molecule itself; experiment: as above
Source text: as §1, §2

B1: binds [1]; no binding [2]; no binding (SNF 1). B1: no binding [3].

B2: human p55 TNF-R DD (residues 326-426) point mutant L351N, Gal4 hybrid construct (receptor, not shown: large carriers)
chain: DPATLYAVVENVPPLRWKEFVRRLGNSDHEIDRLELQNGRCLREAQYSMLATWRRRTPRREATLELLGRVLRDMDLLGCLEDIEEALCGPAALPPAPSLLR
notes: Legend prints 'L35IN'; also called p55-R L35IN; p55 TNF-R (L351N)
B2: no binding [4]; no binding [5]; no binding [6].

B3: DD of the rat low-affinity NGF receptor (receptor, UniProt P07174 340-425, looked up)
chain: LPLTKREEVEKLLNGDTWRHLAGELGYQPEHIDSFTHEACPVRALLASWGAQDSATLDALLAALRRIQRADIVESLCSESTATSPV
notes: domain: DD; Control in the two-hybrid specificity test; construct not described; also called rat NGF-R DD
B3: no binding [7]; no binding [8]; no binding [9].

B4: no binding [2]; no binding (SNF 1); no binding [10]. B4: binds [11].

B5: no binding [2]; no binding (SNF 1); binds [12].
